The target in this experiment is Shiga toxin 2f (Stx2f) holotoxin (Escherichia coli).

B1: monoclonal antibody Stx2f-1 (antibody, V domains shown)
VH: QVQLQQSGPEVVRPGVSVKISCKGSGYTFTDYAIHWVKQSHAKSLEWIGFISTYNGNPNYNKEFKGKATVTVDKSSSTAYLELARLTSEDSAIYFCARDFYGSSSWFAYWGQGTLVTVSA
VL: DIVLTQTPASLAVSLGQRATISCRASESVDSYGDDFMHWYQQKPGQPPKLLIYRVSNLESGIPVRFSGSGSRTDFTLTINPVEADDDATYYCQQSNENPYTFGGGTKLEIK
In the case of B1, the Kd was determined as 516 pM.

For the origin of these results see patent publication US9513287.
